Molecular target: T1, single-chain type IV collagen alpha1 polypeptide (human) (human, UniProt P02462 173-1669, lower proportion of hydroxylated proline and hydroxylated lysine residues than type IV collagen; carries a sugar chain recognized by ABA lectin (positions not given))
T1 construct: mature; Secreted by human cancer cells (HLF, UO31, Lu65A); also called single-chain type IV collagen polypeptide; single-chain COL4
Assay: competition ELISA at equilibrium in solution (method of Djavadi-Ohaniance), free antibody measured on immobilized antigen
Method: The dissociation constant of the purified monoclonal antibody NK46141 was determined by ELISA with reference to the method of Djavadi-Ohaniance L. et al. [Djavadi-Ohaniance L., et al., (1996) In Antibody Engineering (Eds.: McCafferty J., et al.), Chapter 4, pp. 77-97., IRL Press, Oxford.].
In brief, Immunoplate (Nunc; manufactured by Thermo Fisher Scientific Inc.) with the single-chain type IV collagen al polypeptide (antigen) immobilized thereon in advance was prepared. Meanwhile, JK132 and NK46141 having a constant concentration (0.10 μg/ml) were each incubated with varying concentrations of the antigen for a sufficient time until reaching equilibrium. This incubation solution was added to the ELISA wells to determine the amount of free antibodies. Since the antigen-antibody reaction follows the law of mass action, measured values were applied to formula 1 below. X and Y in formula 2 below were determined, and a graph was drawn to determine the dissociation constant from the slope (1/Kd).

T1 sequence (P02462 173-1669): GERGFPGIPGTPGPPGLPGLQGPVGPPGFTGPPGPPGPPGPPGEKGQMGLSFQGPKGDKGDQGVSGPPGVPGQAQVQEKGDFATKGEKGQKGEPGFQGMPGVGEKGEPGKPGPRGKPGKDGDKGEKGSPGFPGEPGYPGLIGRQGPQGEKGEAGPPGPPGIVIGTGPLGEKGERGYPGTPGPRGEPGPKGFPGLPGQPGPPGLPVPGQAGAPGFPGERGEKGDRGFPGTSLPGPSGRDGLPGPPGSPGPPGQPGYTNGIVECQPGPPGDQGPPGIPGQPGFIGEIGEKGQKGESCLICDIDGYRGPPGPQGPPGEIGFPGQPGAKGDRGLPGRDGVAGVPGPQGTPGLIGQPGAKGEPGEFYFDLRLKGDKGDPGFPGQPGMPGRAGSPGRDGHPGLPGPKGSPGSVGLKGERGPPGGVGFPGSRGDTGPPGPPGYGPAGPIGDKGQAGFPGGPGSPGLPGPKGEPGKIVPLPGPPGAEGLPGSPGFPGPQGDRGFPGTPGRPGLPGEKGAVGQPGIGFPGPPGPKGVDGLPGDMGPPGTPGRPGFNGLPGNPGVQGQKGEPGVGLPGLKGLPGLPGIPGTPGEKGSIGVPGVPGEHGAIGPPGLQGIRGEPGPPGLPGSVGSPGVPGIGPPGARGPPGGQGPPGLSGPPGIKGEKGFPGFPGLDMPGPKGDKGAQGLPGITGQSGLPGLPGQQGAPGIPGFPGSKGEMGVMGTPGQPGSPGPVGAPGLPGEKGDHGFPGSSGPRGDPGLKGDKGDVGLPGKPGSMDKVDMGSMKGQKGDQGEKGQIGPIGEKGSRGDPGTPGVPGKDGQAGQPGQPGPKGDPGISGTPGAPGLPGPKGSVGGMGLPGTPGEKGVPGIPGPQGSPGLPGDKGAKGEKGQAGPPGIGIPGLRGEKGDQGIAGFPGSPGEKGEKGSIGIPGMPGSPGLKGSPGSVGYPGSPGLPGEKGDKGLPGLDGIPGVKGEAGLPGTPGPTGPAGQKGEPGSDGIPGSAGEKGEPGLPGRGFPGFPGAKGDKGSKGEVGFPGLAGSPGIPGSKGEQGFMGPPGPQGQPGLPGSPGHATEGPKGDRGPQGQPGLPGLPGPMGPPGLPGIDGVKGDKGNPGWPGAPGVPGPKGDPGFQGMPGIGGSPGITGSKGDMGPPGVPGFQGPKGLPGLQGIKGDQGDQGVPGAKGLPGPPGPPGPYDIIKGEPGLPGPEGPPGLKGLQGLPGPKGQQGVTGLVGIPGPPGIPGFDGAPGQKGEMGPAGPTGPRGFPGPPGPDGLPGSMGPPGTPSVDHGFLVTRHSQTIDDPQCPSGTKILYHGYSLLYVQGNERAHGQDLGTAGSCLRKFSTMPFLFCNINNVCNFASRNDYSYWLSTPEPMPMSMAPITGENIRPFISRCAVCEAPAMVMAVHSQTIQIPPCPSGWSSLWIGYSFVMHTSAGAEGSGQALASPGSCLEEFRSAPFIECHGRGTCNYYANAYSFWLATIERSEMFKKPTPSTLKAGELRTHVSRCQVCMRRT

B1: monoclonal antibody NK46141 (antibody, V domains shown)
VH: EVQLVESGGGLVKPGGSLKLSCAASGFTFTDYYMYWVRQTPEKRLEWVATISEGGSYTYYPDSVKGRFTISRDNAKNNLYLQMSSLKSEDTAMYYCASPYYGDGGFAYWGQGTLVTVSA
VL: DVLMTQTPLSLPVSLGDQASISCRSSQSIVHSDGNTYLEWYLQKPGQSPRLLIYKVSNRFSGVPDRFSGSGSGTDFTLKISRVEAEDLGVYYCFQGSHVPPTFGGGTKLEIKR
notes: also called anti-single-chain type IV collagen polypeptide antibody; Anti NK-Antigen monoclonal antibody #141
  Kd: 34 nM

— US20130224854A1 (NIPPON KAYAKU, published 2013)
